Here are results for three molecules from publication PMC9186387.

The target in data set [1] is C. crescentus full-length DriD (C. crescentus). As to the kind of experiment: SEC.
The next data set addresses T1, DriD(R176A-R178A) (Caulobacter crescentus, UniProt Q9A999 5-331, R180A;R182A).
T1 sequence: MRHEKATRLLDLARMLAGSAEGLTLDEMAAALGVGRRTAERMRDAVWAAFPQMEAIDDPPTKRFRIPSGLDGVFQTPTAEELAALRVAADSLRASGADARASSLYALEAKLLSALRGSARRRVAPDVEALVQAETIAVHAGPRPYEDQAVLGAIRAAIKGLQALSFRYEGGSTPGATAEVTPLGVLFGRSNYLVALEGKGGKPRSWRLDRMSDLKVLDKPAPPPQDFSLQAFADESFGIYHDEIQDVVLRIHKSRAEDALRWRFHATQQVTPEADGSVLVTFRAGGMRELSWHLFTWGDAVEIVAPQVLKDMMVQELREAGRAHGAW
As to the kind of experiment: fluorescence polarization.

Data set [2] concerns the target T2, DriD(Y168A-R178A-Y192A-R204A) (Caulobacter crescentus, UniProt Q9A999 5-331, Y172A;R182A;Y196A;R208A).
T2 sequence: T1 sequence with Y168A, A176R, Y192A, R204A
As to the kind of experiment: fluorescence polarization.

Data set [3] concerns the target T2, DriD(Y168A-R178A-Y192A-R204A). The data set can be described thus: fluorescence polarization. The source holds these as a separate data set.
The next data set deals with T3, DriD(Y168A) (Caulobacter crescentus, UniProt Q9A999 5-331, Y172A).
T3 sequence: T1 sequence with Y168A, A176R, A178R
The data set can be described thus: fluorescence polarization.

Where a chain is given by its changes, count along the chain named. Like-named read-outs stand apart in the source and are kept apart here.

On to “C. crescentus full-length DriD (natural protein)”, for which the stoichiometry N in data set [1] was found to be 2. For the molecule TAGTCTACT (ssDNA) [9mer ssDNA (F-labelled)], the binding result (with DriD(R176A-R178A); in data set [2]) was “no binding” throughout.

B1: DriD operator (optimized) (dsDNA)
DNA 1: ATACGACCGTTTCTGTCGCA
DNA 2: TGCGACAGAAACGGTCGTAT
Turning to B1, in data set [3], the binding result was “no binding”. The molecule further returned a Kd with DriD(Y168A) of 22.3 ± 7 nM.
